How the values were obtained:
Assay in all cases: peptide or protein array
[1] = molecular target: T1, Dis3 (S. cerevisiae, UniProt Q08162 1-1001)
T1 sequence (looked up): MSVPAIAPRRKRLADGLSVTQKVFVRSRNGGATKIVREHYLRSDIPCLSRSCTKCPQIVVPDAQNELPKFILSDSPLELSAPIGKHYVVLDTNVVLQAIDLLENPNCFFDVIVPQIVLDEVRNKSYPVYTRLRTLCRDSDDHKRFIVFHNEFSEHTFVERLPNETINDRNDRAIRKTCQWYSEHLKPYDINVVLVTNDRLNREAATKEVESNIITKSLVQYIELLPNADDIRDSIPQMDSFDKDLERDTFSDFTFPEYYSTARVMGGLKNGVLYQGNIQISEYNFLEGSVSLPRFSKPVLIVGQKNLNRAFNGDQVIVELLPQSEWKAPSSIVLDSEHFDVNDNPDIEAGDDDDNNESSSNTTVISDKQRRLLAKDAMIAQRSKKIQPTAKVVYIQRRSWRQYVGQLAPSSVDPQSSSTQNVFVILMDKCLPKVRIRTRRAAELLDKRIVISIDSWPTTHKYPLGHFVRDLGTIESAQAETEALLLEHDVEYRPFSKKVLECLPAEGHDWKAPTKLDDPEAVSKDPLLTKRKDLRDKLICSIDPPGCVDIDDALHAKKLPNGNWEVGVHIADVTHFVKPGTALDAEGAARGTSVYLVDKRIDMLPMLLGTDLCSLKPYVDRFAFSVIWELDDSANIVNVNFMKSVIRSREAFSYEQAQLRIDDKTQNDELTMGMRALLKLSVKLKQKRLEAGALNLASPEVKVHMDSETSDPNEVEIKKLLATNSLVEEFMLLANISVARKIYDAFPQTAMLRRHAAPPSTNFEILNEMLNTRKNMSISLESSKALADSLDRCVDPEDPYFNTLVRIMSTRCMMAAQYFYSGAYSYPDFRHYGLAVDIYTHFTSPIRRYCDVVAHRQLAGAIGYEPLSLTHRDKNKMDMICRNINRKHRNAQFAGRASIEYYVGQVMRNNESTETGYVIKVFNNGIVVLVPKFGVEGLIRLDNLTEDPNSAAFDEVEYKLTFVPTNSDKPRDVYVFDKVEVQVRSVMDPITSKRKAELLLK

[2] = molecular target: T2, Yjl084c (S. cerevisiae, UniProt P47029 1-1046)
T2 sequence (looked up): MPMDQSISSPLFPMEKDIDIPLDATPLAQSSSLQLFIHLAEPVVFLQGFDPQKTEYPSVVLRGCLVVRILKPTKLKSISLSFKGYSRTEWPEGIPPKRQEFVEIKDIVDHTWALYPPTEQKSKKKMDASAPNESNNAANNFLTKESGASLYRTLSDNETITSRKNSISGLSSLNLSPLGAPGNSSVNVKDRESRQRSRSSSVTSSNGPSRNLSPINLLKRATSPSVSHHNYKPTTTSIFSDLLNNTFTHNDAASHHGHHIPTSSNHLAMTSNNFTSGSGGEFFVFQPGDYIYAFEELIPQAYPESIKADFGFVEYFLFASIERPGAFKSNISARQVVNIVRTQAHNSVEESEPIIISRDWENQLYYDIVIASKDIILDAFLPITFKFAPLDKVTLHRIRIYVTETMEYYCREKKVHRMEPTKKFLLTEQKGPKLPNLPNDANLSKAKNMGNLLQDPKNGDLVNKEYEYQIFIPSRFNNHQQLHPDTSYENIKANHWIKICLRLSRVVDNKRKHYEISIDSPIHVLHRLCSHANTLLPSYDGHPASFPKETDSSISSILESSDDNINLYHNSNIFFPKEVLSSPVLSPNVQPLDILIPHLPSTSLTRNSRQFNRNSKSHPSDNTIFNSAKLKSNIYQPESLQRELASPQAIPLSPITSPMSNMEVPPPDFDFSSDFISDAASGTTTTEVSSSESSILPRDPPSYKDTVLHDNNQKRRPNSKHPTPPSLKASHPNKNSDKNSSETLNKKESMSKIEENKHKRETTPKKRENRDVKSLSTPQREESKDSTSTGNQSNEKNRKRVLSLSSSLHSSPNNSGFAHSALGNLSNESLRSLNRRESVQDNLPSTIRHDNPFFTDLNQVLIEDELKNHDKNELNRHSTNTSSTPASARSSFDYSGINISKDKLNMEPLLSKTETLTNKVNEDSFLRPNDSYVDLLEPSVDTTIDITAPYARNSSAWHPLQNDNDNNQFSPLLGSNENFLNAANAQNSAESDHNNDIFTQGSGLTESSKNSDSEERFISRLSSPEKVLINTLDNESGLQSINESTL

[3] = molecular target: T3, Ykr021w (S. cerevisiae, UniProt P36117 1-915)
T3 sequence (looked up): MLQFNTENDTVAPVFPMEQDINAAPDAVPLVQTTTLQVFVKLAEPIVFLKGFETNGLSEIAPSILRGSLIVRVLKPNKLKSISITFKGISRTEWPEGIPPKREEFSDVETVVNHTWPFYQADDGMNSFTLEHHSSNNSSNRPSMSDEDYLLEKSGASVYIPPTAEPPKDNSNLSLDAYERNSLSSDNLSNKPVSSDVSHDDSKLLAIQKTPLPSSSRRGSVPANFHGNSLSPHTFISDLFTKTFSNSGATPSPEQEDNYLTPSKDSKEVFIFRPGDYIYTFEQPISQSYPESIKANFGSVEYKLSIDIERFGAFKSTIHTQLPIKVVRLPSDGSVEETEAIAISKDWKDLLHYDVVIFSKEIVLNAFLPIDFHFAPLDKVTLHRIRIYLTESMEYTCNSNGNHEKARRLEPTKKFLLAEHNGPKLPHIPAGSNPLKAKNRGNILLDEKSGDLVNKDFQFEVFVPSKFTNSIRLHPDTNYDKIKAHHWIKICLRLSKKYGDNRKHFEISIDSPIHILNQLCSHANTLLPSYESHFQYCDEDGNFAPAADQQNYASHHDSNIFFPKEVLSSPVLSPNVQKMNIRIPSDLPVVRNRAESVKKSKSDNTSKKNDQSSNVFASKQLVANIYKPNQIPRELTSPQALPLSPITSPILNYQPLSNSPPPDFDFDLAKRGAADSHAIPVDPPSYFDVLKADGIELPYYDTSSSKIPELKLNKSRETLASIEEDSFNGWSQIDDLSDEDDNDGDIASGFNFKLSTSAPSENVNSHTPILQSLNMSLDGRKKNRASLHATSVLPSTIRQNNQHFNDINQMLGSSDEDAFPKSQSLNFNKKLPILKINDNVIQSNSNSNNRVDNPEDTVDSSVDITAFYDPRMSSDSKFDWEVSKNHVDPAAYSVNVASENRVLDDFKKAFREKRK

Measured: binding result

B1: Rsp5 (enzyme)
chain: not shown
modifications: labeled with AlexaFluor 647 (Microscale Protein Labeling kit)
binds: [1] | [2] | [3]

Reference: paper PMC1911201 (Molecular Systems Biology, 2007)
